Legend:
[1] = molecular target: T1, human CD47 (human, UniProt Q08722 19-323); test: cell-based ELISA on human OV10 cells, apparent Kd
T1 construct: whole, on cells; also called CD47 on human RBCs; CD47 on OV10 cells
Method: (§1) OV10 cells are grown in IMDM medium containing 10% heat inactivated fetal bovine serum (BioWest; S01520) and 4T1 cells are grown in RMPI medium containing 10% heat inactivated fetal bovine serum (BioWest; S01520). One day before assay, 3×10⁴ cells are plated in 96 well cell bind plates (Corning #3300, VWR #66025-626) so that they are 95-100% confluent at the time of assay. Cells are washed and various concentrations of purified antibodies added in either IMDM or RPMI at 37° C. for 1 hour in […]. Cells are then washed with media and incubated for an additional hour at 37° C. with HRP labeled secondary anti-human antibody (Promega) diluted 1/2500 in media. Cells are washed three times with PBS, and the peroxidase substrate 3,3′,5,5′-tetramethylbenzidine is added (Sigma; Catalog #T4444). Reactions are terminated by the addition of HCl to 0.7N, and absorbance at 450 nm is determined using a Tecan model Infinite M200 plate reader. The apparent binding affinities of these clones to human and mouse cells is determined by non-linear fits (Prism GraphPad software). […] Agglutination of human RBCs is assessed following incubation of human RBCs with various concentrations of humanized blocking only clones. Blood is diluted (1:50) and washed 3 times with PBS/EDTA/BSA. RBCs are added to U-bottomed 96 well plates with equal volumes of the antibodies (75 μl) and incubated for 3 hrs at 37° C. and overnight at 4° C.

[2] = molecular target: T2, mouse CD47 (mouse, UniProt Q61735 19-303); test: cell-based ELISA on mouse 4T1 cells, apparent Kd
T2 construct: whole, on cells; also called CD47 on mouse RBCs; CD47 on 4T1 cells
T2 sequence (looked up): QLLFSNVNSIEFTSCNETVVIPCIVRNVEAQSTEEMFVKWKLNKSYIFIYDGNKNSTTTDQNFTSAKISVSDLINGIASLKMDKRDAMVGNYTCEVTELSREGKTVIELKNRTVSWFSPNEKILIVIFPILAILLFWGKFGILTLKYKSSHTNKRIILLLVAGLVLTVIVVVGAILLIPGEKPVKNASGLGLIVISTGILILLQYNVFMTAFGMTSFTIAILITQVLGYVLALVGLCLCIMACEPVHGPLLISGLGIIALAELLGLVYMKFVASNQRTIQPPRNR
Method: as §1

[3] = molecular target: T3, pig CD47 (pig, UniProt Q9GKE8 19-303); test: flow cytometry on RBCs, CHO supernatant 10 ng/ml
T3 construct: whole, on cells; also called CD47 on porcine RBCs
T3 sequence (looked up): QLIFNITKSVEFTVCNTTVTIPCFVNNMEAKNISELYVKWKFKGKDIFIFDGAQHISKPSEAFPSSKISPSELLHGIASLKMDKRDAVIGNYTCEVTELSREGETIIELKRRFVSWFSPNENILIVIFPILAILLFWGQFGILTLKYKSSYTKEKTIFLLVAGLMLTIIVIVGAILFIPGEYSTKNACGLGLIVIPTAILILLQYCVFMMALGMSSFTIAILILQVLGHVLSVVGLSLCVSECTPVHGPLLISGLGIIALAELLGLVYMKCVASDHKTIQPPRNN
Outline: (§2)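 RBCs incubated 60 min on ice with antibody supernatants at 10 ng/ml in PBS pH 7.2, 2.5 mM EDTA. Binding detected with FITC anti-human secondary (1 h, ice) by flow cytometry; fluorescence expressed relative to chimeric VxP037-01 reference.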

[4] = molecular target: T1, human CD47; test: flow cytometry on RBCs, CHO supernatant 10 ng/ml
Outline: as §2

[5] = molecular target: T4, dog CD47 (dog, UniProt A0A8I3PM61 19-310); test: flow cytometry on RBCs, CHO supernatant 10 ng/ml
T4 construct: also called CD47 on dog RBCs
T4 sequence: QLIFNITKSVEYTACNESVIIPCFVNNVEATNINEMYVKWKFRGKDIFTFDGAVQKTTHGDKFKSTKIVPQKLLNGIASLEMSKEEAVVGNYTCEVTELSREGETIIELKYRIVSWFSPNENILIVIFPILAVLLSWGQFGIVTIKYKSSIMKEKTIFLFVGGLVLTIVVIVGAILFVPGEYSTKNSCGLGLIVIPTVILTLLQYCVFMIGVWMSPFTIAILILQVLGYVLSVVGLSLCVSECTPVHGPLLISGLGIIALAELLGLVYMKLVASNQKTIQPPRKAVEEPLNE
Outline: as §2

[6] = molecular target: T2, mouse CD47; test: flow cytometry on RBCs, CHO supernatant 10 ng/ml
Outline: as §2

[7] = molecular target: T5, rat CD47 (rat, UniProt P97829 19-303); test: flow cytometry on RBCs, CHO supernatant 10 ng/ml
T5 construct: whole, on cells; also called CD47 on rat RBCs
T5 sequence (looked up): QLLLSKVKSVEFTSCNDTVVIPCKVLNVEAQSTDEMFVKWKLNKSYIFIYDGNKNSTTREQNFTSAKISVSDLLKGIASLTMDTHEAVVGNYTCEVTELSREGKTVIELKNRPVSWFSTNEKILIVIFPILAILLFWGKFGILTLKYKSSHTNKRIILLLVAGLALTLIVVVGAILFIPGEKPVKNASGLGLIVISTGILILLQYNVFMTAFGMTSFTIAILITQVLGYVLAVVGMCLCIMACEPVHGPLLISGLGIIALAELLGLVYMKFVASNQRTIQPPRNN
Outline: as §2

[8] = molecular target: T1, human CD47; test: flow cytometry on human RBCs, apparent Kd, non-linear fit
Method: (§3) RBCs are incubated for 60 minutes on ice with tissue culture supernatants containing the secreted humanized antibodies at a concentration of 10 ng/ml in a solution of phosphate buffered saline, pH 7.2, 2.5 mM EDTA (PBS+E), or with various concentrations of purified antibodies. Cells are then washed with cold PBS+E, and incubated for an additional hour on ice with FITC labeled donkey anti-human antibody (Jackson Immuno Research Labs, West Grove, Pa.; Catalogue #709-096-149) in PBS+E. Cells are then washed with PBS+E, and antibody binding is analyzed using a BD FACSAria Cell Sorter (Becton Dickinson) or a C6 Accuri Flow Cytometer (Becton Dickinson). Antibody binding is quantitated by comparison of mean fluorescence values relative to that of chimeric antibody >VxP037-01LC (SEQ ID NO:7))/>VxPO37-01HC (SEQ ID NO:57). The mean fluorescence value for each antibody is divided by the mean fluorescence value for the chimeric antibody.

[9] = molecular target: T1, human CD47; test: flow cytometry on human RBCs, non-linear fit of median fluorescence
Method: as §3

T1 sequence (Q08722 19-323): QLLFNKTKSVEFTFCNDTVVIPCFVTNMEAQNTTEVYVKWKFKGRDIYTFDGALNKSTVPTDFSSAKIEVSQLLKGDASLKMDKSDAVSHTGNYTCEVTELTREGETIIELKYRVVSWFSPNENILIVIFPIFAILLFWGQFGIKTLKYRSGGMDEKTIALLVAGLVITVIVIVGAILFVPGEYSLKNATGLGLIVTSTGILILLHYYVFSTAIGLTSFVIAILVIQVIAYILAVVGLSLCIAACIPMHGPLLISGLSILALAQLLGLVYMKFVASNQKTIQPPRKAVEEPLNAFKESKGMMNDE

| Binder | Kd [1] [nM] | Kd [2] [nM] | mean fluorescence relative to chimeric antibody [3] [ratio] | mean fluorescence relative to chimeric antibody [4] [ratio] | mean fluorescence relative to chimeric antibody [5] [ratio] | mean fluorescence relative to chimeric antibody [6] [ratio] | mean fluorescence relative to chimeric antibody [7] [ratio] | Kd [8] [nM] | Kd [9] [µg/mL] |
| --- | --- | --- | --- | --- | --- | --- | --- | --- | --- |
| Clone 17.2 (hum17 IgG4 S228P L235E) (antibody, IgG4 S228P L235E) heavy: not shown light: AIQLTQSPSSLSASVGDRVTITCRSSQSLVHSNGNTYLHWYQQKPGQAPRLLIYKVSYRFSGVPDRFSGSGSGTDFTLKISRVEAEDVGVYYCSQNTHVPRTFGQGTKVEIKRTVAAPSVFIFPPSDEQLKSGTASVVCLLNNFYPREAKVQWKVDNALQSGNSQESVTEQDSKDSTYSLSSTLTLSKADYEKHKVYACEVTHQGLSSPVTKSFNRGEC | 0.121 | 0.147 |  |  |  |  |  |  |  |
| Clone 1 (pVxK7b-037-hum01-LC / pVxK7b-037-hum01-HC) (antibody, human IgG1, kappa, also called Cl 1) heavy: not shown light: DIVMTQTPLSLPVTPGEPASISCRSSQSLVHSNGNTYLHWYQQKPGKAPKLLIYKVSYRFSGVPDRFSGSGSGTDFTLKISRVEAEDVGVYYCSQNTHVPRTFGQGTKVEIKRTVAAPSVFIFPPSDEQLKSGTASVVCLLNNFYPREAKVQWKVDNALQSGNSQESVTEQDSKDSTYSLSSTLTLSKADYEKHKVYACEVTHQGLSSPVTKSFNRGEC |  |  | 1.3 | 1.1 | 1 | 1.7 | 2.7 | 1.51 | 0.226 |
| Clone 20.2 (hum20 IgG4 S228P L235E) (antibody, IgG4 S228P L235E) heavy: not shown light: DIVMTQTPLSLPVTPGEPASISCRSSQSLVHSNGNTYLHWYLQKPGQSPQLLIYKVSYRFSGVPDRFSGSGSGTDFTLKISRVEAEDVGVYYCSQNTHVPRTFGQGTKVEIKRTVAAPSVFIFPPSDEQLKSGTASVVCLLNNFYPREAKVQWKVDNALQSGNSQESVTEQDSKDSTYSLSSTLTLSKADYEKHKVYACEVTHQGLSSPVTKSFNRGEC | 0.114 | 0.354 |  |  |  |  |  |  |  |
| Clone 20.1 (hum20 IgG1 N297Q) (antibody, IgG1 N297Q) heavy: QITLKESGPTLVKPTQTLTLTCTFSGYTFTNYYVFWVRQAPGQGLEWMGDINPVNGDTNFNEKFKNRVTITADKSTSTAYMELSSLRSEDTAVYYCARGGYTMDYWGQGTLVTVSSASTKGPSVFPLAPSSKSTSGGTAALGCLVKDYFPEPVTVSWNSGALTSGVHTFPAVLQSSGLYSLSSVVTVPSSSLGTQTYICNVNHKPSNTKVDKKVEPKSCDKTHTCPPCPAPELLGGPSVFLFPPKPKDTLMISRTPEVTCVVVDVSHEDPEVKFNWYVDGVEVHNAKTKPREEQYQSTYRVVSVLTVLHQDWLNGKEYKCKVSNKALPAPIEKTISKAKGQPREPQVYTLPPSR light: DIVMTQTPLSLPVTPGEPASISCRSSQSLVHSNGNTYLHWYLQKPGQSPQLLIYKVSYRFSGVPDRFSGSGSGTDFTLKISRVEAEDVGVYYCSQNTHVPRTFGQGTKVEIKRTVAAPSVFIFPPSDEQLKSGTASVVCLLNNFYPREAKVQWKVDNALQSGNSQESVTEQDSKDSTYSLSSTLTLSKADYEKHKVYACEVTHQGLSSPVTKSFNRGEC | 0.121 | 0.237 |  |  |  |  |  |  |  |
| Clone 23.1 (hum23 IgG1 N297Q) (antibody, IgG1 N297Q) heavy: QVQLQESGPGLVKPSQTLSLTCTVSGYTFTNYYVFWVRQARGQRLEWIGDINPVNGDTNFNEKFKNRLTISKDTSKNQVVLTMTNMDPVDTATYYCARGGYTMDYWGQGTLVTVSSASTKGPSVFPLAPSSKSTSGGTAALGCLVKDYFPEPVTVSWNSGALTSGVHTFPAVLQSSGLYSLSSVVTVPSSSLGTQTYICNVNHKPSNTKVDKKVEPKSCDKTHTCPPCPAPELLGGPSVFLFPPKPKDTLMISRTPEVTCVVVDVSHEDPEVKFNWYVDGVEVHNAKTKPREEQYQSTYRVVSVLTVLHQDWLNGKEYKCKVSNKALPAPIEKTISKAKGQPREPQVYTLPPSR light: DIVMTQTPLSLPVTPGEPASISCRSSQSLVHSNGNTYLHWYQQKPGKAPKLLIYKVSYRFSGVPDRFSGSGSGTDFTLKISRVEAEDVGVYYCSQNTHVPRTFGQGTKVEIKRTVAAPSVFIFPPSDEQLKSGTASVVCLLNNFYPREAKVQWKVDNALQSGNSQESVTEQDSKDSTYSLSSTLTLSKADYEKHKVYACEVTHQGLSSPVTKSFNRGEC | 0.0996 | 0.0922 |  |  |  |  |  |  |  |
| Clone 23.2 (hum23 IgG4 S228P L235E) (antibody, IgG4 S228P L235E) heavy: not shown light: DIVMTQTPLSLPVTPGEPASISCRSSQSLVHSNGNTYLHWYQQKPGKAPKLLIYKVSYRFSGVPDRFSGSGSGTDFTLKISRVEAEDVGVYYCSQNTHVPRTFGQGTKVEIKRTVAAPSVFIFPPSDEQLKSGTASVVCLLNNFYPREAKVQWKVDNALQSGNSQESVTEQDSKDSTYSLSSTLTLSKADYEKHKVYACEVTHQGLSSPVTKSFNRGEC | 0.195 | 0.192 |  |  |  |  |  |  |  |
| Clone 13 (pVxK7b-037-hum13-LC / pVxK7b-037-hum13-HC) (antibody, human IgG1, kappa, also called Cl 13) heavy: not shown light: DIVMTQTPLSLPVTPGEPASISCRSSQSLVHSNGNTYLHWYQQKPGKAPKLLIYKVSYRFSGVPDRFSGSGSGTDFTLKISRVEAEDVGVYYCSQNTHVPRTFGQGTKVEIKRTVAAPSVFIFPPSDEQLKSGTASVVCLLNNFYPREAKVQWKVDNALQSGNSQESVTEQDSKDSTYSLSSTLTLSKADYEKHKVYACEVTHQGLSSPVTKSFNRGEC |  |  | 1.4 | 1.2 | 1 | 1.3 | 3.1 | 0.58 | 0.0864 |

— patent US20150274826A1 (ARCH ONCOLOGY, published 2015)
